Experimental findings from article PMC3878766 (2010) are described below.

The target of the assay is T1, Tolloid-like 1 (TLL-1) (Homo sapiens, UniProt O43897).
T1 chain: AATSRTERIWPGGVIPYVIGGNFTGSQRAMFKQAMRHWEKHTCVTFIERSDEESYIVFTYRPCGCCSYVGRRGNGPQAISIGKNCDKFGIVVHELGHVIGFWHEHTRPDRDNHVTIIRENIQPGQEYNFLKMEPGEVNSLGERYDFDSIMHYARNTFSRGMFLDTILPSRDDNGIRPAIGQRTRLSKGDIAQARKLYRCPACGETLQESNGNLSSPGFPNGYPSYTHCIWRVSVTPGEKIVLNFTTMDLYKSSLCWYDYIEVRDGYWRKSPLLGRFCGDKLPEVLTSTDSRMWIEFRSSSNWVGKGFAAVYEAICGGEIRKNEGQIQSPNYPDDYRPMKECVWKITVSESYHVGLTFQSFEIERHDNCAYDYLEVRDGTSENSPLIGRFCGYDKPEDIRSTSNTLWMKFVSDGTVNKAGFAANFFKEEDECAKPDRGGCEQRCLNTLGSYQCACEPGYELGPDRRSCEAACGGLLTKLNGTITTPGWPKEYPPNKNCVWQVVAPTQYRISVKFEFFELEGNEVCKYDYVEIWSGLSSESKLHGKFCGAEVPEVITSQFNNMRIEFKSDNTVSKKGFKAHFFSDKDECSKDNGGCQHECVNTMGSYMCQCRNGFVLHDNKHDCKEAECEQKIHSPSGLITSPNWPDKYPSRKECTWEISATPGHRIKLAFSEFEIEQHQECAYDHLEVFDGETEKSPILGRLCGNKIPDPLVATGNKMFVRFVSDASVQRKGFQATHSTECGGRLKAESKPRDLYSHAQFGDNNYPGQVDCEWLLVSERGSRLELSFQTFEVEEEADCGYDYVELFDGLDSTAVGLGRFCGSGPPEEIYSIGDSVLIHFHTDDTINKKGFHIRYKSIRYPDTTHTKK
The assay is described as follows: sedimentation equilibrium AUC.

B1: Tolloid-like 1 (TLL-1) (protein)
chain: T1 chain
modifications: Ca2+ (0.5 mM CaCl2), V5-His6 tag
The Kd is the equilibrium constant for the complex coming apart. Lower therefore signals tighter binding. B1: the equilibrium dissociation constant (Kd) was 2 nM.
